What was measured:
[1] = target: T1, human PD-L1-Fc fusion protein (Sino Biological Cat #10084-H02H) (human, UniProt Q9NZQ7 19-239); test: BLI (ForteBio), PD-L1-Fc on AHC sensor, Fab in solution
T1 construct: bought; not shown: Fc part of the bought fusion

[2] = target: T2, mouse PD-L1-Fc fusion protein (mouse, UniProt Q9EP73 19-238, limits assumed); test: BLI (ForteBio), PD-L1 on AHC sensor, Fab in solution
T2 construct: not shown: Fc part
T2 sequence (Q9EP73 19-238 limits assumed): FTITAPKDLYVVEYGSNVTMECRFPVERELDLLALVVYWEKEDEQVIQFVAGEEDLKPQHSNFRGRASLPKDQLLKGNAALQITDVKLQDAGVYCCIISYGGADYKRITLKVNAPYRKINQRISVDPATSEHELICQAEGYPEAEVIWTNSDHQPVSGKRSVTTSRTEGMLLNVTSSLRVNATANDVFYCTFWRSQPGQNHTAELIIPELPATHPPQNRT

T1 sequence (Q9NZQ7 19-239 limits assumed): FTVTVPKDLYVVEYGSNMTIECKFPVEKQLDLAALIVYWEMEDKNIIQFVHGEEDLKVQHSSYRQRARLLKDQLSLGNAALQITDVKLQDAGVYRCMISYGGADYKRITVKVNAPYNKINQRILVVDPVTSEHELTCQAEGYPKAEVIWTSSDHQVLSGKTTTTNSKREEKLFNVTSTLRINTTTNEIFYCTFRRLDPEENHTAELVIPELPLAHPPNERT

Kd [1] | Kd [2] | Binder
1.68 nM | 1.67 nM | B15041 (Fab, V domains shown, Fab from E. coli) VH: EVQLVESGGGLVQPGGSLRLSCAASGYSISSGYYWGWIRQAPGKGLEWIGIIYPSGGGTNYAQKFQGRVTISRDNSKNTLYLQLNSLRAEDTAVYYCARGGGLGFDYWGQGTLVTVSS VL: DIQLTQSPSSLSASVGDRVTITCRASQSIPSFLNWYQQKPGKAPKLLIYAASSLQSGVPSRFSGSGSGTDFTLTISSLQPEDFATYYCQHYISWPRQFTFGQGTKVEIKR
1.76 nM | 2.03 nM | B15012 (Fab, V domains shown, Fab from E. coli) VH: EVQLVESGGGLVQPGGSLRLSCAASGYSISSGYYWGWIRQAPGKGLEWIGIIYPSGGGTNYAQKFQGRVTISRDNSKNTLYLQLNSLRAEDTAVYYCARGGGLGFDYWGQGTLVTVSS VL: DIQLTQSPSSLSASVGDRVTITCRASQTIPSFLNWYQQKPGKAPKLLIYAASTLQSGVPSRFSGSGSGTDFTLTISSLQPEDFATYYCQHYSSWPRGFTFGQGTKVEIKR
4.52 nM | 3.48 nM | B15024 (Fab, V domains shown, Fab from E. coli) VH: EVQLVESGGGLVQPGGSLRLSCAASGYSISSGYYWGWIRQAPGKGLEWIGIIYPSGGGTNYAQKFQGRVTISRDNSKNTLYLQLNSLRAEDTAVYYCARGGGLGFDYWGQGTLVTVSS VL: DIQLTQSPSSLSASVGDRVTITCRASQSIPTFLNWYQQKPGKAPKLLIYAASTLQSGVPSRFSGSGSGTDFTLTISSLQPEDFATYYCQHYVSWPRLFTFGQGTKVEIKR
2.43 nM | 3.87 nM | B15014 (Fab, V domains shown, Fab from E. coli) VH: EVQLVESGGGLVQPGGSLRLSCAASGYSISSGYYWGWIRQAPGKGLEWIGIIYPSGGGTNYAQKFQGRVTISRDNSKNTLYLQLNSLRAEDTAVYYCARGGGLGFDYWGQGTLVTVSS VL: DIQLTQSPSSLSASVGDRVTITCRASQDIPKFLAWYQQKPGKAPKLLIYAASTLQSGVPSRFSGSGSGTDFTLTISSLQPEDFATYYCQHYVSWPRQFTFGQGTKVEIKR
3.68 nM | 3.03 nM | B15022 (Fab, V domains shown, Fab from E. coli) VH: EVQLVESGGGLVQPGGSLRLSCAASGYSISSGYYWGWIRQAPGKGLEWIGIIYPSGGGTNYAQKFQGRVTISRDNSKNTLYLQLNSLRAEDTAVYYCARGGGLGFDYWGQGTLVTVSS VL: DIQLTQSPSSLSASVGDRVTITCRASQSIPSFLNWYQQKPGKAPKLLIYAASTLQSGVPSRFSGSGSGTDFTLTISSLQPEDFATYYCQQYSSWPRLFTFGQGTKVEIKR
4.31 nM | 2.98 nM | B15074 (Fab, V domains shown, Fab from E. coli) VH: EVQLVESGGGLVQPGGSLRLSCAASGYSISSGYYWGWIRQAPGKGLEWIGIIYPSGGGTNYAQKFQGRVTISRDNSKNTLYLQLNSLRAEDTAVYYCARGGGLGFDYWGQGTLVTVSS VL: DIQLTQSPSSLSASVGDRVTITCRASQTIPSFLNWYQQKPGKAPKLLIYAASTLQSGVPSRFSGSGSGTDFTLTISSLQPEDFATYYCQHYISWPRVFTFGQGTKVEIKR
4.79 nM | 3.23 nM | B15082 (Fab, V domains shown, Fab from E. coli) VH: EVQLVESGGGLVQPGGSLRLSCAASGYSISSGYYWGWIRQAPGKGLEWIGIIYPSGGGTNYAQKFQGRVTISRDNSKNTLYLQLNSLRAEDTAVYYCARGGGLGFDYWGQGTLVTVSS VL: DIQLTQSPSSLSASVGDRVTITCRASQTIPSFLNWYQQKPGKAPKLLIYAASSLQSGVPSRFSGSGSGTDFTLTISSLQPEDFATYYCQHYGSWPRRFTFGQGTKVEIKR

The remaining lines, values behind:

Binder | Kd [1] | Kd [2]
B14644 (Fab, V domains shown, Fab from E. coli) VH: EVQLVESGGGLVQPGGSLRLSCAASGYTFSNYGIHWVRQAPGKGLEWIGWIYPSGGGTKYAQKFQGRVTISRDNSKNTLYLQLNSLRAEDTAVYYCAREGGGYGYALDYWGQGTLVTVSS VL: DIQLTQSPSSLSASVGDRVTITCRASESVDFYGKSFLAWYQQKPGKAPKLLIYDASNRATGIPSRFSGSGSGTDFTLTISSLQPEDFATYYCQQYDYWPYTFGQGTKVEIKR | 0.248 nM | 
B14638 (Fab, V domains shown, Fab from E. coli) VH: EVQLVESGGGLVQPGGSLRLSCAASGYTFSNYGIHWVRQAPGKGLEWIGWIYPSGGGTKYAQKFQGRVTISRDNSKNTLYLQLNSLRAEDTAVYYCAREGGGYGYALDYWGQGTLVTVSS VL: DIQLTQSPSSLSASVGDRVTITCRASQSVGSIYLGWYQQKPGKAPKLLIYDASNRATGIPSRFSGSGSGTDFTLTISSLQPEDFATYYCQQYDSWPYTFGQGTKVEIKR | 0.314 nM | 
B14651 (Fab, V domains shown, Fab from E. coli) VH: EVQLVESGGGLVQPGGSLRLSCAASGYTFSNYGIHWVRQAPGKGLEWIGWIYPSGGGTKYAQKFQGRVTISRDNSKNTLYLQLNSLRAEDTAVYYCAREGGGYGYALDYWGQGTLVTVSS VL: DIQLTQSPSSLSASVGDRVTITCRASESVDFHGKSFLAWYQQKPGKAPKLLIYDASNRATGIPSRFSGSGSGTDFTLTISSLQPEDFATYYCQQYDHWPYTFGQGTKVEIKR | 0.301 nM | 
B14689 (Fab, V domains shown, Fab from E. coli) VH: EVQLVESGGGLVQPGGSLRLSCAASGYTFSNYGIHWVRQAPGKGLEWIGWIYPSGGGTKYAQKFQGRVTISRDNSKNTLYLQLNSLRAEDTAVYYCAREGGGYGYALDYWGQGTLVTVSS VL: DIQLTQSPSSLSASVGDRVTITCRASQSVDFYGKSFLDWYQQKPGKAPKLLIYDASSLESGVPSRFSGSGSGTDFTLTISSLQPEDFATYYCQQYDHWPYTFGQGTKVEIKR | 0.163 nM | 
B14645 (Fab, V domains shown, Fab from E. coli) VH: EVQLVESGGGLVQPGGSLRLSCAASGYTFSNYGIHWVRQAPGKGLEWIGWIYPSGGGTKYAQKFQGRVTISRDNSKNTLYLQLNSLRAEDTAVYYCAREGGGYGYALDYWGQGTLVTVSS VL: DIQLTQSPSSLSASVGDRVTITCRASQSVDFYGKSFLDWYQQKPGKAPKLLIYDASNLETGVPSRFSGSGSGTDFTLTISSLQPEDFATYYCQQYDAWPYTFGQGTKVEIKR | 0.296 nM | 
B14681 (Fab, V domains shown, Fab from E. coli) VH: EVQLVESGGGLVQPGGSLRLSCAASGYTFSNYGIHWVRQAPGKGLEWIGWIYPSGGGTKYAQKFQGRVTISRDNSKNTLYLQLNSLRAEDTAVYYCAREGGGYGYALDYWGQGTLVTVSS VL: DIQLTQSPSSLSASVGDRVTITCRASQSVDFHGISFLDWYQQKPGKAPKLLIYDASNRATGIPSRFSGSGSGTDFTLTISSLQPEDFATYYCQQYDHWPYTFGQGTKVEIKR | 0.543 nM | 
B14673 (Fab, V domains shown, Fab from E. coli) VH: EVQLVESGGGLVQPGGSLRLSCAASGYTFSNYGIHWVRQAPGKGLEWIGWIYPSGGGTKYAQKFQGRVTISRDNSKNTLYLQLNSLRAEDTAVYYCAREGGGYGYALDYWGQGTLVTVSS VL: DIQLTQSPSSLSASVGDRVTITCRASESVDFYGKSFLAWYQQKPGKAPKLLIYDASSLESGVPSRFSGSGSGTDFTLTISSLQPEDFATYYCQQYDSWPYTFGQGTKVEIKR | 0.323 nM | 
B14658 (Fab, V domains shown, Fab from E. coli) VH: EVQLVESGGGLVQPGGSLRLSCAASGYTFSNYGIHWVRQAPGKGLEWIGWIYPSGGGTKYAQKFQGRVTISRDNSKNTLYLQLNSLRAEDTAVYYCAREGGGYGYALDYWGQGTLVTVSS VL: DIQLTQSPSSLSASVGDRVTITCRASQSVDFHGKSFLDWYQQKPGKAPKLLIYDASNRATGIPSRFSGSGSGTDFTLTISSLQPEDFATYYCQQYDSWPYTFGQGTKVEIKR | 0.142 nM | 
B14690 (Fab, V domains shown, Fab from E. coli) VH: EVQLVESGGGLVQPGGSLRLSCAASGYTFSNYGIHWVRQAPGKGLEWIGWIYPSGGGTKYAQKFQGRVTISRDNSKNTLYLQLNSLRAEDTAVYYCAREGGGYGYALDYWGQGTLVTVSS VL: DIQLTQSPSSLSASVGDRVTITCRASQSVDFHGISFLDWYQQKPGKAPKLLIYDASNLETGVPSRFSGSGSGTDFTLTISSLQPEDFATYYCQQYDSWPYTFGQGTKVEIKR | 0.467 nM | 
B14650 (Fab, V domains shown, Fab from E. coli) VH: EVQLVESGGGLVQPGGSLRLSCAASGYTFSNYGIHWVRQAPGKGLEWIGWIYPSGGGTKYAQKFQGRVTISRDNSKNTLYLQLNSLRAEDTAVYYCAREGGGYGYALDYWGQGTLVTVSS VL: DIQLTQSPSSLSASVGDRVTITCRASESVDFYGKSFLDWYQQKPGKAPKLLIYDASNRATGIPSRFSGSGSGTDFTLTISSLQPEDFATYYCQQYDHWPYTFGQGTKVEIKR | 0.357 nM | 
B14665 (Fab, V domains shown, Fab from E. coli) VH: EVQLVESGGGLVQPGGSLRLSCAASGYTFSNYGIHWVRQAPGKGLEWIGWIYPSGGGTKYAQKFQGRVTISRDNSKNTLYLQLNSLRAEDTAVYYCAREGGGYGYALDYWGQGTLVTVSS VL: DIQLTQSPSSLSASVGDRVTITCRASQSVDFYGKSFLAWYQQKPGKAPKLLIYDASSLESGVPSRFSGSGSGTDFTLTISSLQPEDFATYYCQQYDSWPYTFGQGTKVEIKR | 0.369 nM | 
B15016 (Fab, V domains shown, Fab from E. coli) VH: EVQLVESGGGLVQPGGSLRLSCAASGYSISSGYYWGWIRQAPGKGLEWIGIIYPSGGGTNYAQKFQGRVTISRDNSKNTLYLQLNSLRAEDTAVYYCARGGGLGFDYWGQGTLVTVSS VL: DIQLTQSPSSLSASVGDRVTITCRASQTIPSFLNWYQQKPGKAPKLLIYAASSLQSGVPSRFSGSGSGTDFTLTISSLQPEDFATYYCQHYTSWPRQFTFGQGTKVEIKR | 3.56 nM | 2.84 nM
B14032 (Fab, V domains shown, Fab from E. coli) VH: EVQLVESGGGLVQPGGSLRLSCAASGYSISSGYYWGWIRQAPGKGLEWIGIIYPSGGGTNYAQKFQGRVTISRDNSKNTLYLQLNSLRAEDTAVYYCARGGGLGFDYWGQGTLVTVSS VL: DIQLTQSPSSLSASVGDRVTITCQASQDIPTFLAWYQQKPGKAPKLLIYAASSLQSGVPSRFSGSGSGTDFTLTISSLQPEDFATYYCQQYVSWPRGFTFGQGTKVEIKR | 5.11 nM | 4.84 nM

Reference: US20210122824A1 (ADAGENE, published 2021)
